This assay has as its target gbrap_human GABARAP (UniProt O95166).
gbrap_human GABARAP, sequence (O95166 whole entry): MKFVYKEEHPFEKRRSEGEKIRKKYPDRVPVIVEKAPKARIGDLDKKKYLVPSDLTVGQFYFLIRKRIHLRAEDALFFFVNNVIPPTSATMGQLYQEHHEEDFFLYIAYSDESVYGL
For “Pericentriolar material 1 protein (Homo sapiens), Q15154 K1965I”, the “effect of a mutation on the interaction” value is reported as “with no effect”.
Consider “Pericentriolar material 1 protein (Homo sapiens), Q15154 K1965L”, for which the “effect of a mutation on the interaction” value was “with no effect”.
As to “Pericentriolar material 1 protein (Homo sapiens), Q15154 K1965M”, the “effect of a mutation on the interaction” value is on record as “with no effect”.
“Pericentriolar material 1 protein (Homo sapiens), Q15154 K1965N”: the “effect of a mutation on the interaction” value is reported as “with no effect”.
On to “Pericentriolar material 1 protein (Homo sapiens), Q15154 K1965P”, for which the “effect of a mutation on the interaction” value is “disrupting interaction strength”.
Take “Pericentriolar material 1 protein (Homo sapiens), Q15154 K1965Q”: the “effect of a mutation on the interaction” value is “with no effect”.
Turning to “Pericentriolar material 1 protein (Homo sapiens), Q15154 K1965R”, the “effect of a mutation on the interaction” value was “with no effect”.
“Pericentriolar material 1 protein (Homo sapiens), Q15154 K1965S”: the “effect of a mutation on the interaction” value is on record as “with no effect”.
As for “Pericentriolar material 1 protein (Homo sapiens), Q15154 K1965T”, the “effect of a mutation on the interaction” value was “with no effect”.
Then “Pericentriolar material 1 protein (Homo sapiens), Q15154 K1965V”, with “with no effect”; and “Pericentriolar material 1 protein (Homo sapiens), Q15154 K1965W”, with “with no effect”.
With “Pericentriolar material 1 protein (Homo sapiens), Q15154 K1965Y”, the “effect of a mutation on the interaction” value is “with no effect”.
With “Pericentriolar material 1 protein (Homo sapiens), Q15154 K1972A”, the “effect of a mutation on the interaction” value is listed as “with no effect”.
“Pericentriolar material 1 protein (Homo sapiens), Q15154 K1972C”: the “effect of a mutation on the interaction” value is “with no effect”.
Regarding “Pericentriolar material 1 protein (Homo sapiens), Q15154 K1972D”, the “effect of a mutation on the interaction” value is recorded as “with no effect”.
In the case of “Pericentriolar material 1 protein (Homo sapiens), Q15154 K1972E”, the “effect of a mutation on the interaction” value is “with no effect”.
With “Pericentriolar material 1 protein (Homo sapiens), Q15154 K1972F”, the “effect of a mutation on the interaction” value was “with no effect”.
The same measure for “Pericentriolar material 1 protein (Homo sapiens), Q15154 K1972G”: “with no effect”.
Take “Pericentriolar material 1 protein (Homo sapiens), Q15154 K1972H”: the “effect of a mutation on the interaction” value is recorded as “with no effect”.
“Pericentriolar material 1 protein (Homo sapiens), Q15154 K1972I”: the “effect of a mutation on the interaction” value is reported as “with no effect”.
Regarding “Pericentriolar material 1 protein (Homo sapiens), Q15154 K1972L”, the “effect of a mutation on the interaction” value is listed as “with no effect”.
On to “Pericentriolar material 1 protein (Homo sapiens), Q15154 K1972M”, for which the “effect of a mutation on the interaction” value was “with no effect”.
In the case of “Pericentriolar material 1 protein (Homo sapiens), Q15154 K1972N”, the “effect of a mutation on the interaction” value was “with no effect”.
For “Pericentriolar material 1 protein (Homo sapiens), Q15154 K1972P”, the “effect of a mutation on the interaction” value is given as “with no effect”.
For “Pericentriolar material 1 protein (Homo sapiens), Q15154 K1972Q”, the “effect of a mutation on the interaction” value is “with no effect”.
Turning to “Pericentriolar material 1 protein (Homo sapiens), Q15154 K1972R”, the “effect of a mutation on the interaction” value was “with no effect”.
As to “Pericentriolar material 1 protein (Homo sapiens), Q15154 K1972S”, the “effect of a mutation on the interaction” value is recorded as “with no effect”.
“Pericentriolar material 1 protein (Homo sapiens), Q15154 K1972T”: the “effect of a mutation on the interaction” value is recorded as “with no effect”.
With “Pericentriolar material 1 protein (Homo sapiens), Q15154 K1972V”, the “effect of a mutation on the interaction” value is reported as “with no effect”.
“Pericentriolar material 1 protein (Homo sapiens), Q15154 K1972W”: the “effect of a mutation on the interaction” value is on record as “with no effect”.
Turning to “Pericentriolar material 1 protein (Homo sapiens), Q15154 K1972Y”, the “effect of a mutation on the interaction” value is given as “with no effect”.
In the case of “Pericentriolar material 1 protein (Homo sapiens), Q15154 L1969A”, the “effect of a mutation on the interaction” value is “with no effect”.
For “Pericentriolar material 1 protein (Homo sapiens), Q15154 L1969C”, the “effect of a mutation on the interaction” value is “with no effect”.
On to “Pericentriolar material 1 protein (Homo sapiens), Q15154 L1969D”, for which the “effect of a mutation on the interaction” value is “with no effect”.
Then “Pericentriolar material 1 protein (Homo sapiens), Q15154 L1969E”, with “with no effect”; and “Pericentriolar material 1 protein (Homo sapiens), Q15154 L1969F”, with “with no effect”.
With “Pericentriolar material 1 protein (Homo sapiens), Q15154 L1969G”, the “effect of a mutation on the interaction” value is given as “with no effect”.
“Pericentriolar material 1 protein (Homo sapiens), Q15154 L1969H”: the “effect of a mutation on the interaction” value is reported as “with no effect”.
For the substance “Pericentriolar material 1 protein (Homo sapiens), Q15154 L1969I”, the “effect of a mutation on the interaction” value is given as “with no effect”.
For “Pericentriolar material 1 protein (Homo sapiens), Q15154 L1969K”, the “effect of a mutation on the interaction” value is “with no effect”.
“Pericentriolar material 1 protein (Homo sapiens), Q15154 L1969M”: the “effect of a mutation on the interaction” value is given as “with no effect”.
Consider “Pericentriolar material 1 protein (Homo sapiens), Q15154 L1969N”, for which the “effect of a mutation on the interaction” value is reported as “with no effect”.
For the substance “Pericentriolar material 1 protein (Homo sapiens), Q15154 L1969P”, the “effect of a mutation on the interaction” value was “with no effect”.
Consider “Pericentriolar material 1 protein (Homo sapiens), Q15154 L1969Q”, for which the “effect of a mutation on the interaction” value is given as “with no effect”.
On to “Pericentriolar material 1 protein (Homo sapiens), Q15154 L1969R”, for which the “effect of a mutation on the interaction” value is given as “with no effect”.
Take “Pericentriolar material 1 protein (Homo sapiens), Q15154 L1969S”: the “effect of a mutation on the interaction” value was “with no effect”.
As for “Pericentriolar material 1 protein (Homo sapiens), Q15154 L1969T”, the “effect of a mutation on the interaction” value is recorded as “disrupting interaction strength”.
With “Pericentriolar material 1 protein (Homo sapiens), Q15154 L1969V”, the “effect of a mutation on the interaction” value is on record as “with no effect”.
The same measure for “Pericentriolar material 1 protein (Homo sapiens), Q15154 L1969W”: “with no effect”; for “Pericentriolar material 1 protein (Homo sapiens), Q15154 L1969Y”: “with no effect”.
Then “Pericentriolar material 1 protein (Homo sapiens), Q15154 L1971A”, with “with no effect”; and “Pericentriolar material 1 protein (Homo sapiens), Q15154 L1971C”, with “with no effect”.
For “Pericentriolar material 1 protein (Homo sapiens), Q15154 L1971D”, the “effect of a mutation on the interaction” value is recorded as “with no effect”.
As for “Pericentriolar material 1 protein (Homo sapiens), Q15154 L1971E”, the “effect of a mutation on the interaction” value was “with no effect”.
For the substance “Pericentriolar material 1 protein (Homo sapiens), Q15154 L1971F”, the “effect of a mutation on the interaction” value is reported as “with no effect”.
As to “Pericentriolar material 1 protein (Homo sapiens), Q15154 L1971G”, the “effect of a mutation on the interaction” value was “with no effect”.
In the case of “Pericentriolar material 1 protein (Homo sapiens), Q15154 L1971H”, the “effect of a mutation on the interaction” value is on record as “with no effect”.
Then “Pericentriolar material 1 protein (Homo sapiens), Q15154 L1971I”, with “with no effect”.
Regarding “Pericentriolar material 1 protein (Homo sapiens), Q15154 L1971K”, the “effect of a mutation on the interaction” value is “with no effect”.
With “Pericentriolar material 1 protein (Homo sapiens), Q15154 L1971M”, the “effect of a mutation on the interaction” value was “with no effect”.
The same measure for “Pericentriolar material 1 protein (Homo sapiens), Q15154 L1971N”: “with no effect”; for “Pericentriolar material 1 protein (Homo sapiens), Q15154 L1971P”: “with no effect”; for “Pericentriolar material 1 protein (Homo sapiens), Q15154 L1971Q”: “with no effect”.
“Pericentriolar material 1 protein (Homo sapiens), Q15154 L1971R”: the “effect of a mutation on the interaction” value is given as “with no effect”.
The same measure for “Pericentriolar material 1 protein (Homo sapiens), Q15154 L1971S”: “with no effect”.

These data come from IntAct's records for PubMed 28712572.
